Data as given in patent US20200024360A1 (Janssen / Centocor, published 2020).

How the values were obtained:
[1] = biological target: T1, chimpanzee PSMA, full length (Pan troglodytes, UniProt Q04609 1-750 (human entry)); experiment: FACS, whole cell binding, chimp PSMA HEK; calculated EC50
T1 construct: On transfected HEK293F cells; also called chimp PSMA; H2Q3K5_PANTR
T1 chain: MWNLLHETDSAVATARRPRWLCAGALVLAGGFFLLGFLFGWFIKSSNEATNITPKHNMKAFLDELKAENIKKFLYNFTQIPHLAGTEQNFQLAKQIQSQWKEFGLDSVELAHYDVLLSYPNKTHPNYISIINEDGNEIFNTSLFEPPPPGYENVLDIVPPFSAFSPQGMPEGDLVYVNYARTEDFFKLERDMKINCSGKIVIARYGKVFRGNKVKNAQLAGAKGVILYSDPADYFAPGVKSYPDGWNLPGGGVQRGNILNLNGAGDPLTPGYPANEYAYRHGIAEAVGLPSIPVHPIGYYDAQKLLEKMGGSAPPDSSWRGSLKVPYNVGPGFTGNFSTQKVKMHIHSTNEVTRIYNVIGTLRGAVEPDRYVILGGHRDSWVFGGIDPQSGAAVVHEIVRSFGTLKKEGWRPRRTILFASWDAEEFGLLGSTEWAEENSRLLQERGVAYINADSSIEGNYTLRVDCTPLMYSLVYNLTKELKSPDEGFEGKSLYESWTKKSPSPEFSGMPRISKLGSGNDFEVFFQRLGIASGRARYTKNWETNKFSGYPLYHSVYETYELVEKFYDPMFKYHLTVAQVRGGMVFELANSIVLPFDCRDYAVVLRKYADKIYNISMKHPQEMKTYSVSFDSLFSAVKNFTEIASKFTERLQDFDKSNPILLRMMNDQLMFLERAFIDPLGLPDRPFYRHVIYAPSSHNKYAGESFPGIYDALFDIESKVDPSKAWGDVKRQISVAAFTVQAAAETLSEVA
Procedure: PSMA×CD3 bispecific antibodies were tested for binding to PSMA positive cell lines LNCAP, human PSMA-HEK, Chimpanzee-PSMA-HEK and Cynomolgous monkey PSMA-HEK. To assess the binding capabilities of the PSMA bispecific antibodies, the cell-binding assay was utilized (described previously). Briefly, PSMA expressing tumor cells are bound by bispecific antibodies at known concentrations and the bound antibody is detected by an anti-human kappa light chain PE conjugated detection reagent (Invitrogen). The Mean Fluorescents Intensity (MFI) is the measure of bound bispecific antibody. The MFI is converted to a relative EC₅₀. EC₅₀ is a commonly used dose-response curve, where the half maximal effective concentration or the EC₅₀ point is defined as the inflection point of the curve. EC₅₀ s were determined by measuring cell bound bispecific and known concentrations. […] The dose response curves were then diluted down to that of background or no bispecific binding. The inflection point of this curve reflects the EC₅₀ point. The calculated EC₅₀ is determined by taking the ug/ml amount of bispecific antibody at the EC₅₀ point and converting it to a molarity value based on the MW of the bispecific antibody. Bispecific antibodies were normalized for protein concentration and then incubated with the same number of cells expressing either human or cyno PSMA. The MFI at each concentration was collected by flow cytometry and plotted as a function of concentration. Data was transformed via log 10 and then plotted. Nonlinear regression of binding curves was done to determine EC₅₀ s. These relative values were used for ranking PSMA binding to target cells.

[2] = biological target: T2, recombinant chimpanzee PSMA extracellular domain (ECD) protein (Pan troglodytes, UniProt Q04609 44-750 (human entry)); experiment: SPR Biacore 3000, bsAb captured by anti-Fc
T2 construct: also called Chimp PSMA ECD; PSMG8
T2 chain: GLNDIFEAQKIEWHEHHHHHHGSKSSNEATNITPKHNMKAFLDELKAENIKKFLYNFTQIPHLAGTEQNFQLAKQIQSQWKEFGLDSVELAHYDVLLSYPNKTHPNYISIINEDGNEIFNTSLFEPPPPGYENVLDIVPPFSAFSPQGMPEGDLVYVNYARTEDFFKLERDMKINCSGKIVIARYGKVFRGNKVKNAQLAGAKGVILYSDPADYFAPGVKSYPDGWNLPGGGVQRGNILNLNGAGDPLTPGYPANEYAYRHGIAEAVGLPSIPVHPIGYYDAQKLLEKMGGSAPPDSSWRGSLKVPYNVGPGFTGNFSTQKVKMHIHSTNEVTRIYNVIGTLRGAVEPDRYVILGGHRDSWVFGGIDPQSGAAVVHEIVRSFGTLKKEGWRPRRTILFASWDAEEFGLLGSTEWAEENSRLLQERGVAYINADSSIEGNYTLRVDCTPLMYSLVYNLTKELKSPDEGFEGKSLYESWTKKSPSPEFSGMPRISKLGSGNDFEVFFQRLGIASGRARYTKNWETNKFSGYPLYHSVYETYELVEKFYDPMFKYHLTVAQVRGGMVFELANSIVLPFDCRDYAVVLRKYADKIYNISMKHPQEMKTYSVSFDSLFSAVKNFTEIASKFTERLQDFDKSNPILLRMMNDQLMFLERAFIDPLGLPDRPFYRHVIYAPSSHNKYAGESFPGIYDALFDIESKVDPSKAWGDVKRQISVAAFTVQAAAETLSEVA
Procedure: Binding to recombinant Chimp PSMA by Biacore. The Affinity measurements using Surface Plasmon Resonance (SPR) were performed using a Biacore 3000 optical biosensor (Biacore-GE Healthcare). A biosensor surface was prepared by coupling anti-Human IgG Fc (Jackson ImmunoResearch Laboratory, cat #109-005-098) to the carboxymethylated dextran surface of a CM-5 chip (Biacore, cat # BR-1000-12) using the manufacturer instructions for amine-coupling chemistry. Approximately 16,000 RU (response units) of anti-Human IgG Fc antibodies were immobilized in each of four flow cells. The kinetic experiments were performed at 25° C. in running buffer (DPBS+0.03% P20+[…]). Dilutions of antigen (recombinant Chimp PSMA, concentration either from 1.2-300 nM or 3.7-900 nM in a 3-fold serial dilution) were prepared in running buffer. About 100 RU of PSMA×CD3 bispecific mAbs were captured on flow cell 2 to 4 of the sensor chip. Flow cell 1 was used as reference surface. Capture of PSMA×CD3 bispecific mAb was followed by a 3 or 5-minute injection (association phase) of antigen (recombinant Chimp PSMA) at 50 μl/min, followed by 15 or 20 minutes of buffer flow (dissociation phase). The chip surface was regenerated by two 18-second injections of 100 mM Phosphoric acid (H₃PO₄, Sigma, cat #7961) at 50 μl/min.
The collected data were processed using BIAevaluation software (Biacore). First, double reference subtraction of the data was performed by subtracting the curves generated by buffer injection from the reference-subtracted curves for analyte injections. Then kinetic analysis of the data was performed using a Langmuir 1:1 binding model with global fit. The result for each PSMA×CD3 bispecific mAb was reported in the format of kₐ (On-rate), kd (Off-rate) and KD (Equilibrium dissociation constant).

B1: PS3B27 (bispecific antibody, human IgG4 S228P, kappa, lambda, F234A L235A)
heavy 1: not shown
light 1: not shown
heavy 2: EVQLVESGGGLVQPGGSLRLSCAASGFTFNTYAMNWVRQAPGKGLEWVARIRSKYNNYATYYAASVKGRFTISRDDSKNSLYLQMNSLKTEDTAVYYCARHGNFGNSYVSWFAYWGQGTLVTVSSASTKGPSVFPLAPCSRSTSESTAALGCLVKDYFPEPVTVSWNSGALTSGVHTFPAVLQSSGLYSLSSVVTVPSSSLGTKTYTCNVDHKPSNTKVDKRVESKYGPPCPPCPAPEAAGGPSVFLFPPKPKDTLMISRTPEVTCVVVDVSQEDPEVQFNWYVDGVEVHNAKTKPREEQFNSTYRVVSVLTVLHQDWLNGKEYKCKVSNKGLPSSIEKTISKAKGQPREPQVYTLPPSQEEMTKNQVSLTCLVKGFYPSDIAVEWESNGQPENNYKTTPPVLDSDGSFLLYSKLTVDKSRWQEGNVFSCSVMHEALHNHYTQKSLSLSLGK
light 2: QTVVTQEPSLTVSPGGTVTLTCRSSTGAVTTSNYANWVQQKPGQAPRGLIGGTNKRAPGTPARFSGSLLGGKAALTLSGVQPEDEAEYYCALWYSNLWVFGGGTKLTVLGQPKAAPSVTLFPPSSEELQANKATLVCLISDFYPGAVTVAWKADSSPVKAGVETTTPSKQSNNKYAASSYLSLTPEQWKSHRSYSCQVTHEGSTVEKTVAPTECS
notes: IgG4 PAA; PSMA arm chains first, then CD3 arm (F405L, R409K); also called PSMB127 x CD3B219; PS2B27
EC50 [1]: 22.8 nM | Kd [2]: 22.4 nM | koff [2]: 0.002 s⁻¹ | kon [2]: 89000 M⁻¹ s⁻¹

B2: PS3B30 (bispecific antibody, human IgG4 S228P, kappa, lambda, F234A L235A)
heavy 1: not shown
light 1: not shown
heavy 2: B1 heavy 2
light 2: B1 light 2
notes: IgG4 PAA; PSMA arm chains first, then CD3 arm (F405L, R409K); also called PSMB130 x CD3B219
EC50 [1]: 23.2 nM | Kd [2]: 52.3 nM | koff [2]: 0.00182 s⁻¹ | kon [2]: 34800 M⁻¹ s⁻¹

B3: PS3B22 (bispecific antibody, human IgG4 S228P, kappa, lambda, F234A L235A)
heavy 1: not shown
light 1: DIQMTQSPSSLSASVGDRVTITCRASQSIDRWLNWYQQKPGKAPKLLIYAASSLQSGVPSRFSGSGSGTDFTLTISSLQPEDFATYYCQQSPRYPLTFGQGTKVEIKRTVAAPSVFIFPPSDEQLKSGTASVVCLLNNFYPREAKVQWKVDNALQSGNSQESVTEQDSKDSTYSLSSTLTLSKADYEKHKVYACEVTHQGLSSPVTKSFNRGEC
heavy 2: B1 heavy 2
light 2: B1 light 2
notes: IgG4 PAA; PSMA arm chains first, then CD3 arm (F405L, R409K); also called PSMB122 x CD3B219; PSB22
EC50 [1]: 21.2 nM | Kd [2]: 60.4 nM | koff [2]: 0.001 s⁻¹ | kon [2]: 16600 M⁻¹ s⁻¹

B4: PS3B23 (bispecific antibody, human IgG4 S228P, kappa, lambda, F234A L235A)
heavy 1: not shown
light 1: not shown
heavy 2: B1 heavy 2
light 2: B1 light 2
notes: IgG4 PAA; PSMA arm chains first, then CD3 arm (F405L, R409K); also called PSMB123 x CD3B219
EC50 [1]: 6.18 nM | Kd [2]: 9.1 nM | koff [2]: 0.00122 s⁻¹ | kon [2]: 134000 M⁻¹ s⁻¹

B5: PS3B24 (bispecific antibody, human IgG4 S228P, kappa, lambda, F234A L235A)
heavy 1: not shown
light 1: not shown
heavy 2: B1 heavy 2
light 2: B1 light 2
notes: IgG4 PAA; PSMA arm chains first, then CD3 arm (F405L, R409K); also called PSMB124 x CD3B219
EC50 [1]: 7.75 nM | Kd [2]: 38.6 nM | koff [2]: 0.000907 s⁻¹ | kon [2]: 23500 M⁻¹ s⁻¹

B6: PS3B28 (bispecific antibody, human IgG4 S228P, kappa, lambda, F234A L235A)
heavy 1: not shown
light 1: not shown
heavy 2: B1 heavy 2
light 2: B1 light 2
notes: IgG4 PAA; PSMA arm chains first, then CD3 arm (F405L, R409K); also called PSMB128 x CD3B219
EC50 [1]: 7.08 nM | Kd [2]: 30.8 nM | koff [2]: 0.00191 s⁻¹ | kon [2]: 62000 M⁻¹ s⁻¹

B7: PS3B19 (bispecific antibody, human IgG4 S228P, kappa, lambda, F234A L235A)
heavy 1: not shown
light 1: not shown
heavy 2: B1 heavy 2
light 2: B1 light 2
notes: IgG4 PAA; PSMA arm chains first, then CD3 arm (F405L, R409K); also called PSMB119 x CD3B219
EC50 [1]: 35.9 nM | Kd [2]: 66.3 nM | koff [2]: 0.000414 s⁻¹ | kon [2]: 6240 M⁻¹ s⁻¹

B8: PS3B25 (bispecific antibody, human IgG4 S228P, kappa, lambda, F234A L235A)
heavy 1: not shown
light 1: not shown
heavy 2: B1 heavy 2
light 2: B1 light 2
notes: IgG4 PAA; also called PSMB87 x CD3B219
Kd [2]: 16.4 nM | koff [2]: 0.00108 s⁻¹ | kon [2]: 65900 M⁻¹ s⁻¹

B9: PS3B20 (bispecific antibody, human IgG4 S228P, kappa, lambda, F234A L235A)
heavy 1: not shown
light 1: not shown
heavy 2: B1 heavy 2
light 2: B1 light 2
notes: IgG4 PAA; PSMA arm chains first, then CD3 arm (F405L, R409K); also called PSMB120 x CD3B219
EC50 [1]: 23.4 nM | Kd [2]: 59.1 nM | koff [2]: 0.000461 s⁻¹ | kon [2]: 7820 M⁻¹ s⁻¹
